Test results as given in US20240301052A1 (LANOVA MEDICINES DEVELOPMENT, published 2024).

Key:
[1] = molecular target: T1, mouse SLC34A2 (mouse, UniProt Q9DBP0 1-697); assay: FACS, HEK293/Mouse SLC34A2 cells
T1 construct: whole, on cells
T1 sequence (looked up): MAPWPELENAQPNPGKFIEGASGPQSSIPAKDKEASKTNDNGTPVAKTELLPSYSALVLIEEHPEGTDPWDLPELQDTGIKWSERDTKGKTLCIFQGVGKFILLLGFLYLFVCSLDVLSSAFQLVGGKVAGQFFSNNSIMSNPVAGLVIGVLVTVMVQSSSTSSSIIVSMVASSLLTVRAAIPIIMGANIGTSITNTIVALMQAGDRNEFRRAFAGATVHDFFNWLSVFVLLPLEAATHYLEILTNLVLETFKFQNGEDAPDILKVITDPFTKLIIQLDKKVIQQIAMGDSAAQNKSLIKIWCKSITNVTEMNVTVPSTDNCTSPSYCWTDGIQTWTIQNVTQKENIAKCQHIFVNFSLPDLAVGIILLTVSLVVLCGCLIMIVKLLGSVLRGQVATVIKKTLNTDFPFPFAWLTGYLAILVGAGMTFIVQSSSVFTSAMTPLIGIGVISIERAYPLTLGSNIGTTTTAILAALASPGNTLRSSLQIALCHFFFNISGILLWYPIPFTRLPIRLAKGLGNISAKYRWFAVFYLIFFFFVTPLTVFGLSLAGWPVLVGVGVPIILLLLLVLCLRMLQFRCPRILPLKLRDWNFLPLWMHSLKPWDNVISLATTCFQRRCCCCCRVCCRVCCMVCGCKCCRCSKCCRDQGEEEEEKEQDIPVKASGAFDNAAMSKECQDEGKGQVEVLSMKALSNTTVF

[2] = molecular target: T2, human SLC34A2 (human, UniProt O95436 1-690); assay: FACS, OVCAR3 cells
T2 sequence (looked up): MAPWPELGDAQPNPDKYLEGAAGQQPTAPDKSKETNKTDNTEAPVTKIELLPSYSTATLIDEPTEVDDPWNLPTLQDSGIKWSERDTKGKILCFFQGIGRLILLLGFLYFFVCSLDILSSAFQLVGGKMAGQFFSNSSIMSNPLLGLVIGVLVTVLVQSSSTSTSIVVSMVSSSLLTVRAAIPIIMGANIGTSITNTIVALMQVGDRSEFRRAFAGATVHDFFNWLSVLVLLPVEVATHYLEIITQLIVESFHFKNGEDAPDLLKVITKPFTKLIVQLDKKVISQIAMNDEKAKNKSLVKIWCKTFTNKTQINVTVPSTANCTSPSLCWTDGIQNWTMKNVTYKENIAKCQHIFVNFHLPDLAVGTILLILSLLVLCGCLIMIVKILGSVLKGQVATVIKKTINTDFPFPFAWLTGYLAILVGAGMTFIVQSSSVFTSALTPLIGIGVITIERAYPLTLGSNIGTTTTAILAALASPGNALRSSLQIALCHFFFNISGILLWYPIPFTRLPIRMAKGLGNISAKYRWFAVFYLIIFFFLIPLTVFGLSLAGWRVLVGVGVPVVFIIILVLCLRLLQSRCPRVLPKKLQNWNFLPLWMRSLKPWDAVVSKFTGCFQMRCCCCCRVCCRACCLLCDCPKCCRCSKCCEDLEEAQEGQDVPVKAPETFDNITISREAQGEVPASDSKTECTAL

[3] = molecular target: T2, human SLC34A2; assay: FACS, HEK293/human SLC34A2 cells
[4] = molecular target: T2, human SLC34A2; assay: cell-based or functional assay
[5] = molecular target: T3, rat SLC34A2 (rat, UniProt Q9JJ09 1-695); assay: FACS, HEK293/Rat SLC34A2 cells
T3 construct: whole, on cells
T3 sequence (looked up): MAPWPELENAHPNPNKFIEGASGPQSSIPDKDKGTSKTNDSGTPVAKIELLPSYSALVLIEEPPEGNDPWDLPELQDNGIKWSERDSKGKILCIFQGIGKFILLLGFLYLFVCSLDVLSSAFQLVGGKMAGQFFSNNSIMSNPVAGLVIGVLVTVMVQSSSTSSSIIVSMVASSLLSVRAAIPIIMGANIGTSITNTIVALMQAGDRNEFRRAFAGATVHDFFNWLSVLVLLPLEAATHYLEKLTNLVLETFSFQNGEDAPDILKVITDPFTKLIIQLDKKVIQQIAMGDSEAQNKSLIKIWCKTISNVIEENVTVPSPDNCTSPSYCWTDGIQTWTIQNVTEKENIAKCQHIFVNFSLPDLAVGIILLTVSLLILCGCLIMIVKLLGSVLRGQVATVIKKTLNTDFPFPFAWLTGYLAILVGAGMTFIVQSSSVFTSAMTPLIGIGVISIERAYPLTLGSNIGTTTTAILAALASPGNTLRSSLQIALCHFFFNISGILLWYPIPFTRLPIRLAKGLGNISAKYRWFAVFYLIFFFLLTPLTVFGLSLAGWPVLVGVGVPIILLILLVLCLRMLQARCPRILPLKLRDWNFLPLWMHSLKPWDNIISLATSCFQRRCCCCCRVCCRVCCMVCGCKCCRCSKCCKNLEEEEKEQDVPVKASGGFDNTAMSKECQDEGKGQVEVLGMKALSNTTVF

[6] = molecular target: T2, human SLC34A2; assay: FACS, HEK293/human SLC34A2 cells; remark: listed apart in the source
[7] = molecular target: T2, human SLC34A2; assay: FACS, OVCAR3 cells; remark: listed apart in the source
[8] = molecular target: Cynomolgus SLC34A2 (Cynomolgus); assay: FACS, cells expressing Cynomolgus SLC34A2

- EC50 [1]: 6.13 nM
- EC50 [2]: 6.8 nM
- EC50 [3]: 4.27 nM
- ADCC reporter EC50 [4]: 0.76 nM
- ADCC reporter Top (MFI) [4]: 127000 MFI
- ADCC-HEK293 [4]: 0.76 nM
- ADCC-OVCAR3 [4]: 0.25 nM
- EC50 [5]: 4.48 nM
- EC50 [6]: 4.05 nM
- Top [6]: 34700 MFI
- EC50 [7]: 6.87 nM
- Top (MFI) [7]: 29000 MFI
- EC50 [8]: 29.3 nM
- Top (MFI) [8]: 2050 MFI
B1: XMT-1536 (antibody, INN chains, looked up, V domains shown)
VH: QVQLVQSGAEVVKPGASVKMSCKASGYTFTGYNIHWVKQAPGQGLEWIGAIYPGNGDTSYKQKFRGRATLTADTSTSTVYMELSSLRSEDSAVYYCARGETARATFAYWGQGTLVTVSS
VL: DIQMTQSPSSLSASVGDRVTITCSASQDIGNFLNWYQQKPGKTVKVLIYYTSSLYSGVPSRFSGSGSGTDYTLTISSLQPEDFATYYCQQYSKLPLTFGQGTKLELK
modifications: rilsodotin auristatin payload
- Cytotoxic Effect - MDAH-2774 [4]: 0.28 nM
- Cytotoxic Effect - OVCAR3 [4]: 0.029 nM
- cytotoxicity EC50 [4]: 0.72 nM
- cytotoxicity Inhibition % [4]: 100%
